The values that follow come from patent US20160193294A1 (UNIVERSITY OF QUEENSLAND, published 2016).

In experiment [1] the target is T1, recombinant human E-selectin extracellular domain fused with the Fc fragment of human IgM (human, UniProt P16581 22-556).
T1 construct: extracellular domain; Used as COS7 supernatant (pCDM8 plasmid); It was pre-complexed with Cy5-conjugated donkey anti-human IgM F(ab)'2 before the assay; also called E-selectin-IgMFc; selectin-IgMFc; not shown: Fc fragment of human IgM
T1 sequence (looked up): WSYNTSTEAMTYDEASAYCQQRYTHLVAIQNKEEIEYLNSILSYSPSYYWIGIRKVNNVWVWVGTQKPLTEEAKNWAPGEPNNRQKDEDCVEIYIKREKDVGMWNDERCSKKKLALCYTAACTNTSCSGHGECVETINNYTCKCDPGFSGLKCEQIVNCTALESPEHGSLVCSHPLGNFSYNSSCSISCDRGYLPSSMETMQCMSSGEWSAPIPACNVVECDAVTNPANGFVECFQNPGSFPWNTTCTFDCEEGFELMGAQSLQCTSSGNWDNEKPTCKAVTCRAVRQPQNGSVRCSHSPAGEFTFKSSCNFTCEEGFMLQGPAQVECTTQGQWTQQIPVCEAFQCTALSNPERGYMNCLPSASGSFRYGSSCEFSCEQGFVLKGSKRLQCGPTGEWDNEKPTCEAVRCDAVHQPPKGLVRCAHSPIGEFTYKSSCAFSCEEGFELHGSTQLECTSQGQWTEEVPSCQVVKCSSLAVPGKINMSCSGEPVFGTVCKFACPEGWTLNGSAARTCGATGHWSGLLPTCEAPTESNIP
The experiment can be described thus: flow cytometry: soluble selectin-IgMFc on bone marrow granulocytes of wild-type and knock-out mice. The source says: In a second assay, binding of recombinant E-selectin and P-selectin was directly measured in solution by flow cytometry. For this purpose, recombinant human P-selectin or E-selectin extracellular domains fused with the Fc portion of human IgM were used as selectins required prior clustering to bind to their cellular receptors. As IgM are decameric proteins, each fusion recombinant protein is a decamer or either P-selectin or E-selectin. The clustering resulting from decamerization of selectin enables them to directly interact in solution with their cellular receptors. The inventors therefore measured the binding of recombinant selectin-IgM Fc fusion proteins to bone marrow cells isolated from wild-type, PSGL1−/−, CD44−/− or PSGL1−/−CD44−/− double KO mice. Detection by flow cytometry was performed by pre-complexing the selectin-IgMFc fusion proteins with a Cy5-conjubated donkey anti-human IgM antibody. […] Thus these experiments confirm that PSGL1 and CD44 are necessary and sufficient for E-selectin binding to mature granulocytes, hematopoietic stem cells can bind and adhere to E-selectin via alternative receptors which are not encoded by the PSGL1 and C44 genes.
Prior to the experiment, recombinant selectin-IgMFc fusion proteins were complexed with Cy5-conjugated donkey IgG F(ab)′2 fragments anti-human IgM. […]

Experiment [2] deals with T2, recombinant protein made of the entire extracellular domain of mouse P-selectin fused to the Fc fragment of … (mouse; human, UniProt Q01102 42-709).
T2 construct: extracellular domain; Bought from R&D Systems and adsorbed to polystyrene wells at 3 ug/ml; also called muPsel-IgG1Fc; muP-selectin-IgG1Fc; not shown: Fc fragment of human IgG1
T2 sequence (looked up): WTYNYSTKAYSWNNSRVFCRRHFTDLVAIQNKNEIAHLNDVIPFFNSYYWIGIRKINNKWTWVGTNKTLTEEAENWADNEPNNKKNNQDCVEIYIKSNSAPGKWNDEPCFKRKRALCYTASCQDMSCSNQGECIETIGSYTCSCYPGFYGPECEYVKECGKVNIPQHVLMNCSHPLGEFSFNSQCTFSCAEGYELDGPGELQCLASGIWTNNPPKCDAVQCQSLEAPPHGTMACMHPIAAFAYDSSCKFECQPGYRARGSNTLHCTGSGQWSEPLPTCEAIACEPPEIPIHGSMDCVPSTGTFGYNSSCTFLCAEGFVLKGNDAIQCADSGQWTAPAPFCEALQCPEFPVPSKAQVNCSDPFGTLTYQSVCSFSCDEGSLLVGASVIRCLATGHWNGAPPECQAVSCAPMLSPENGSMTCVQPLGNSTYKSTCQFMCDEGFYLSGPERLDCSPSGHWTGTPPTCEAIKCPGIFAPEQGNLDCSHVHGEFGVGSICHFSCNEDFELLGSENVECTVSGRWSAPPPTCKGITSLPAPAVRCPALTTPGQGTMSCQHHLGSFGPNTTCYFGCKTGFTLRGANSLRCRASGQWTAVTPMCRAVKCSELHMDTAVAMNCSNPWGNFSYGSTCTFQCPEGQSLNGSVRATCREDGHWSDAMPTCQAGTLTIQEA
Description: cell adhesion assay: calcein-labelled cells of wild-type and knock-out mice on wells coated with the fusion protein. As for the experimental part:
96-well polystyrene cell culture plates were coated overnight at 4*C with 50 μL per well of phosphate buffered saline containing 3 μg/ml of recombinant proteins made of the entire extracellular domain of mouse E-selectin, P-selectin or VCAM-1/CD106 fused to the Fc fragment of human IgG1 (muEsel-IgG1Fc, muPsel-IgG1Fc, or muVCAM1-IgG1Fc respectively, from R&D Systems)) as previously described 8. Prior to the experiment, plates were flicked to remove excess coating solution and filled with Hepes buffered saline supplemented with 2% bovine serum albumin to block non-specific adhesion to plastic surfaces. […]
Bone marrow cells from CD44 KO, PSGL1 KO and CD44-PSGL1 double KO mice were stained with FITC-conjugated biotinylated rat monoclonal antibodies specific for CD3, CD5. […] Lineage-negative CD117-positive hematopoietic progenitor cells were then sorted by fluorescence activated cell sorting on an Aria cell sorter (BD Biosciences).
Sorted Lineage-negative CD117-positive hematopoietic progenitor cells when then washed and resuspended in cell adhesion buffer and labelled with the intracellular fluorescent dye calcein-AM (Molecular Probes) for 40 minutes at 37° C. […] The fluorescence contained in the remaining adherent cells was measured on a Fluorostar plate fluorometer following exciting at 488 nm using a 530 nm filter.

B1: P-selectin glycoprotein ligand-1 (mouse, on bone marrow cells) (receptor, UniProt Q62170 42-397, looked up)
chain: QVVGDDDFEDPDYTYNTDPPELLKNVTNTVAAHPELPTTVVMLERDSTSAGTSERATEKIATTDPTAPGTGGTAVGMLSTDSATQWSLTSVETVQPASTEVETSQPAPMEAETSQPAPMEAETSQPAPMEAETSQPAPMEADTSQPAPMEAETSQPAPNEAETSKPAPTEAETSKPAPTEAETTQLPRIQAVKTLFTTSAATEVPSTEPTTMETASTESNESTIFLGPSVTHLPDSGLKKGLIVTPGNSPAPTLPGSSDLIPVKQCLLIILILASLATIFLVCTVVLAVRLSRKTHMYPVRNYSPTEMICISSLLPEGGDGAPVTANGGLPKVQDLKTEPSGDRDGDDLTLHSFLP
notes: whole, on cells; also called PSGL-1; PSGL1
As for B1, the binding result in experiment [1] and in experiment [2] was “binds” throughout.
